For 2 molecules, Kd results are on record in publication PMC7082075.

In assay [1] the target is SNX3-retromer complex (Retromer + SNX3), Q96QK1. The assay can be described thus: ITC; approximately 2–3 mM peptide titrated into SNX5^PX (300 μM) or the SNX3-retromer complex (10 μM Retromer + 100 μM SNX3); 100 mM HEPES pH 7.5, 300 mM NaCl, 2 mM βME, 25°C; one set of sites model (Fig 1D, 1E, 2B). (Isothermal titration calorimetry measures the heat released or taken up as one component is titrated into another.)

Assay [2] deals with SNX3-retromer complex (retromer VPS35/VPS26/VPS29 with SNX3), Q96QK1. The assay can be described thus: ITC; Fig 1E: approximately 2–3 mM of peptides titrated into the SNX3-retromer complex (10 μM Retromer + 100 μM SNX3); 100 mM HEPES pH 7.5, 300 mM NaCl, 2 mM βME, 25°C; one set of sites model; single values of triplicates.

Where “and” joins values, the source holds several entries; their conditions need not be identical. Equal values may be shown once.

By Kd is commonly meant a measure of binding affinity in units of concentration.

B1: DMT1-II peptide (peptide)
chain: AQPELYLLNTMDADSLVSR
modifications: not checked
Consider B1, for which the Kd in assay [1] was found to be 110 µM.

B2: DMT1-II peptide (divalent metal transporter 1) (peptide)
chain: AQPELYLLNTMDADSLVSR
modifications: not checked
Consider B2, for which the Kd in assay [2] was 100 µM and 113 µM and 117 µM.
